The source of these data is article PMC3113298.

In the assay the target is Cu, Zn-superoxide dismutase-1 (SOD1), human (human) (UniProt P00441).
Sequence of Cu, Zn-superoxide dismutase-1 (SOD1), human (human) (P00441 whole entry): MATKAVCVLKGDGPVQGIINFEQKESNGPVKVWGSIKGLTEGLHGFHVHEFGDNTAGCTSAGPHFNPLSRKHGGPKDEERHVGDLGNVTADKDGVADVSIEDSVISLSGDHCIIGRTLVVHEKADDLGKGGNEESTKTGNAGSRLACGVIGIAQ

B1: Puromycin-sensitive aminopeptidase (PSA/NPEPPS), rat (enzyme)
chain: MWLAAAVPSLARRLLLLGSPPPPLLLLLSRSSSRRRRLHSLGLAAMPEKRPFERLPTEVSPINYSLCLKPDLLDFTFEGKLEAAAQVRQATNQIVMNCADIDIITASYAPEGDEEIHATGFNYQNEDEKVTLSFPSTLQTGTGTLKIDFVGELNDKMKGFYRSRYTTPAGEVRYAAVTQFEATDARRAFPCWDEPAIKATFDISLVVPKDRVALSNMNVIDRKPYPDDENLVEVKFARTPVMSTYLVAFVVGEYDFVETRSKDGVCVRVYTPVGKAEQGKFALEVAAKTLPFYKDYFNVPYPLPKIDLIAIADFAAGAMENWGLVTYRETALLIDPKNSCSSSRQWVALVVGHELAHQWFGNLVTMEWWTHLWLNEGFASWIEYLCVDHCFPEYDIWTQFVSADYTRAQELDALDNSHPIEVSVGHPSEVDEIFDAISYSKGASVIRMLHDYIGDKDFKKGMNMYLTKFQQKNAATEDLWESLESASGKPIAAVMNTWTKQMGFPLIYVEAEQVEDDRVLKLSQKKFCASGPYVGEDCPQWMVPITISTSEDPNQAKLKILMDKPEMSVVLKNVKPDQWVKLNLGTVGFYRTQYSSAMLESLLPGIRDLSLPPVDRLGLQNDLFSLARAGIISTVEVLKVMEAFVNEPNYTVWSDLSCNLGILSTLLSHTDFYEEIQEFVKDVFSPIGERLGWDPKPGEGHLDALLRGLVLGKLGKAGHKATLEEARRRFKEHVEGKQILSADLRSPVYLTVLKHGDGTTLDIMLKLHKQADMQEEKNRIERVLGATLSPELIQKVLTFALSEEVRPQDTVSVIGGVAGGSKHGRKAAWKFIKDNWEELYNRYQGGFLISRLIKLSVEGFAVDKMAGEVKAFFESHPAPSAERTIQQCCENILLNAAWLKRDADSIHQYLLQRKASPPSV
Regarding B1, the proteolysis of purified human SOD1 by purified rat PSA/NPEPPS: loss of full-length SOD1 by Western blot after 6 h at 37°C, 50 mM Bicine pH 7.0, 0.2 mM DTT, molar ratio 1:6 (PSA:SOD1) came out at 80%.
